For this test, the target named is T1, BBI (Bcl9 peptide) 351-357 (Homo sapiens, UniProt O00512).
T1 chain: LSQEQLE

B1: β-catenin (protein)
chain: ATQADLMELDMAMEPDRKAAVSHWQQQSYLDSGIHSGATTTAPSLSGKGNPEEEDVDTSQVLYEWEQGFSQSFTQEQVADIDGQYAMTRAQRVRAAMFPETLDEGMQIPSTQFDAAHPTNVQRLAEPSQMLKHAVVNLINYQDDAELATRAIPELTKLLNDEDQVVVNKAAVMVHQLSKKEASRHAIMRSPQMVSAIVRTMQNTNDVETARCTAGTLHNLSHHREGLLAIFKSGGIPALVKMLGSPVDSVLFYAITTLHNLLLHQEGAKMAVRLAGGLQKMVALLNKTNVKFLAITTDCLQILAYGNQESKLIILASGGPQALVNIMRTYTYEKLLWTTSRVLKVLSVCSSNKPAIVEAGGMQALGLHLTDPSQRLVQNCLWTLRNLSDAATKQEGMEGLLGTLVQLLGSDDINVVTCAAGILSNLTCNNYKNKMMVCQVGGIEALVRTVLRAGDREDITEPAICALRHLTSRHQEAEMAQNAVRLHYGLPVVVKLLHPPSHWPLIKATVGLIRNLALCPANHAPLREQGAIPRLVQLLVRAHQDTQRRTSMGGTQQQFVEGVRMEEIVEGCTGALHILARDVHNRIVIRGLNTIPLFVQLLYSPIENIQRVAAGVLCELAQDKEAAEAIEAEGATAPLTELLHSRNEGVATYAAAVLFRMSEDKPQDYKKRLSVELTSSLFRTEPMAWNETADLGLDIGAQGEPLGYRQDDPSYRSFHSGGYGQDALGMDPMMEHEMGGHHPGADYPVDGLPDLGHAQDLMDGLPPGDSNQLAWFDTDL
A word on the Kd: it is the free concentration of one partner at which half of the binding sites on the other are occupied at equilibrium, for simple one-to-one binding. A lower Kd goes with higher affinity. For B1, the Kd was ~1000 nM.

The record behind these values is PMC7518326 (2020).
